According to publication PMC7048817, “Structure of the processive human Pol δ holoenzyme” (Nature Communications, 2020):

How the values were obtained:
[1] = molecular target: the molecule itself; assay: SEC; HiLoad 16/600 Superdex 200 pg in PCNA storage buffer; 2 mg of each PCNA form in 250 μL, 1 mL/min; markers carbonic anhydrase (27 kDa) and conalbumin (75 kDa); monomers to trimer
[2] = molecular target: T1, p125, catalytic subunit of human Pol δ (human, UniProt P28340 1-1107); assay: cryo-EM structure; Pol δ–DNA–PCNA–dTTP complex with 25/38 primer/template DNA (3' dideoxy terminator); 25 mM HEPES-KOH pH 7.5, 100 mM potassium acetate, 10 mM calcium chloride, 0.02% NP-40, 0.4 mM biotin, 1 mM DTT; 4.1 Å map from the sample frozen after mixing (conformers at 4.3, 4.9, 8.1 Å), 3.0 Å map from the gel-filtered sample in which FEN1 is invisible; conditions: both partners purified
T1 construct: DNA polymerase delta catalytic subunit p125, human; Stood in the assay as a subunit of the Pol δ heterotetramer; source: Sf9 insect cells, coexpressed with p50, p66 and p12 (MultiBac baculovirus), purified as the heterotetramer
T1 sequence: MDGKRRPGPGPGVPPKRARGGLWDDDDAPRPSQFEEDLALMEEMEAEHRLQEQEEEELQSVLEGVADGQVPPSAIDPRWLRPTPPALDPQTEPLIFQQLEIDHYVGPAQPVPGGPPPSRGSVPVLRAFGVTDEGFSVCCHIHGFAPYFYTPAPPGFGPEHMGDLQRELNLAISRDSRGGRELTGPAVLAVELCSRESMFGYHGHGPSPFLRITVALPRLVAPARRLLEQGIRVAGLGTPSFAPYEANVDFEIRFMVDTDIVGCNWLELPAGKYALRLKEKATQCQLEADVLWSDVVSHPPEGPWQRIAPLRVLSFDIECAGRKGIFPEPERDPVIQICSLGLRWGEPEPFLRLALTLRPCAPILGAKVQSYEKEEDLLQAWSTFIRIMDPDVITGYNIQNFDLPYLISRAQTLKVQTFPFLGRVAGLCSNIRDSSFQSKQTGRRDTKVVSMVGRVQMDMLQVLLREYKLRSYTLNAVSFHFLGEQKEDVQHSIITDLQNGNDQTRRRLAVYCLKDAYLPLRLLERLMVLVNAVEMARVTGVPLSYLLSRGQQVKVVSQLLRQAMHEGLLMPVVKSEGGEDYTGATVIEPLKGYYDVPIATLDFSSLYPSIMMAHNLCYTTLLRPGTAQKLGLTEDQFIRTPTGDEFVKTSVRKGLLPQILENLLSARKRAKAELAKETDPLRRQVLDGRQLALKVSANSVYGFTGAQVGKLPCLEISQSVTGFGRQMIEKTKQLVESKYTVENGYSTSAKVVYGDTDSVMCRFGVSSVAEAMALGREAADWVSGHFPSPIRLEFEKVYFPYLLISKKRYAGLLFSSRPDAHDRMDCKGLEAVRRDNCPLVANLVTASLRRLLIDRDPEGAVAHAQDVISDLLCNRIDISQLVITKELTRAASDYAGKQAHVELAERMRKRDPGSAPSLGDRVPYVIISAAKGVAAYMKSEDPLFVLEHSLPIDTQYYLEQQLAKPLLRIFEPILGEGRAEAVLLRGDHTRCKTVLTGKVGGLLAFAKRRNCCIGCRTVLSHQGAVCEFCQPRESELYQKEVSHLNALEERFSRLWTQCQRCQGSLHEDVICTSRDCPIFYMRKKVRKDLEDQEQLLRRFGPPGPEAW

[3] = molecular target: T2, p50, regulatory subunit of human Pol δ (human, UniProt P49005 1-469); assay: as above; conditions: both partners purified
T2 construct: DNA polymerase delta subunit p50 (B-subunit), human; Stood in the assay as a subunit of the Pol δ heterotetramer; also called B-subunit; source: Sf9 insect cells, coexpressed with p125, p66 and p12 (MultiBac baculovirus), purified as the heterotetramer
T2 sequence (P49005 whole entry, stated change not applied): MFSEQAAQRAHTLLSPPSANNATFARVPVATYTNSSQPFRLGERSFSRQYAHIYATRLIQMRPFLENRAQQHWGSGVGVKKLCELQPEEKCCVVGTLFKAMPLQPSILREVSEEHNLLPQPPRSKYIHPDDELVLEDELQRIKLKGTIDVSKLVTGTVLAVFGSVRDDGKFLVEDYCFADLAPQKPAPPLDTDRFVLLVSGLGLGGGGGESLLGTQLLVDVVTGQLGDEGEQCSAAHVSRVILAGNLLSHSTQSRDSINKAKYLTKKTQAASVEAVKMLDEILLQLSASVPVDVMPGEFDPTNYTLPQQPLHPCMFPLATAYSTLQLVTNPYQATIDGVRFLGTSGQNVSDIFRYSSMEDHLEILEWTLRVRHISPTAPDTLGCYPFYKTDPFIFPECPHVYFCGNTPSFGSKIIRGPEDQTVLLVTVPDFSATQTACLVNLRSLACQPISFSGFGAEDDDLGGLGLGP

B1: DLDV-PCNA (PCNA D120A, L121A, D122A, V123E) (natural protein, human, UniProt P12004 1-261, looked up)
chain: MFEARLVQGSILKKVLEALKDLINEACWDISSSGVNLQSMDSSHVSLVQLTLRSEGFDTYRCDRNLAMGVNLTSMSKILKCAGNEDIITLRAEDNADTLALVFEAPNQEKVSDYEMKLMAAAEEQLGIPEQEYSCVVKMPSGEFARICRDLSHIGDAVVISCAKDGVKFSASGELGNGNIKLSQTSNVDKEEEAVTIEMNEPVQLTFALRYLNFFTKATPLSSTVTLSMSADVPLVVEYKIADMGHLKYYLAPKIEDEEGS
notes: proliferating cell nuclear antigen, human, full length, with D120A, L121A, D122A and V123E; source: E. coli BL21 (DE3), purified (HisTrap, HiTrap Q, Superdex 200)
- stoichiometry N [1]: 3

B2: p12, regulatory subunit of human Pol δ (natural protein)
chain: GRKRLITDSYPVVKRREGPAGHSKGELAPELGEEPQPRDEEEAELELLRQFDLAWQYGPCTGITRLQRWCRAKQMGLEPPPEVWQVLKTHPGDPRFQCSLWHLYPL
notes: Stood in the assay as a subunit of the Pol δ heterotetramer; source: Sf9 insect cells, coexpressed with p125, p50 and p66 (MultiBac baculovirus), purified as the heterotetramer
- binding result [2]: binds
- binding result [3]: binds

B3: p66, regulatory subunit of human Pol δ (natural protein)
chain: ADQLYLENIDEFVTDQNKIVTYKWLSYTLGVHVNQAKQMLYDYVERKRKENSGAQLHVTYLVSGSLIQNGHSCHKVAVVREDKLEAVKSKLAVTASIHVYSIQKAMLKDSGPLFNTDYDILKSNLQNCSKFSAIQCAAAVPRAPAESSSSSKKFEQSHLHMSSETQANNELTTNGHGPPASKQVSQQPKGIMGMFASKAAAKTQETNKETKTEAKEVTNASAAGNKAPGKGNMMSNFFGKAAMNKFKVNLDSEQAVKEEKIVEQPTVSVTEPKLATPAGLKKSSKKAEPVKVLQKEKKRGKRVALSDDETKETENMRKKRRRIKLPESDSSEDEVFPDSPGAYEAESPSPPPPPSPPLEPVPKTEPEPPSVKSSSGENKRKRKRVLKSKTYLDGEGCIVTEKVYESESCTDSEEELNMKTSSVHRPPAMTVKKEPREERKGPKKGTAALGKANRQVSITGFFQRK
notes: DNA polymerase delta subunit p66, human; last visible residue in the map is Ala144; Stood in the assay as a subunit of the Pol δ heterotetramer; also called p66N (its visible N-terminal part); source: Sf9 insect cells, coexpressed with p125, p50 and p12 (MultiBac baculovirus), purified as the heterotetramer
- binding result [3]: binds
